The results in this text go back to the nanobody polyreactivity screen of Harvey et al. (2022).

The nature of this data set: yeast display, Sf9 membrane polyspecificity reagent, FACS + sequencing; frameworks hold sequencing errors. A digest of the protocol: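 A nanobody's polyreactivity label depends on the gate it was sorted from. Yeast display cells were stained with 10% biotinylated, detergent-solubilized Sf9 membrane reagent for 1 hour at 4 °C, enriched on streptavidin microbeads and sorted by FACS. The low and high (top ~1%) gates were set on anti-HA fluorescence for expression and streptavidin fluorescence for reagent binding.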
Take “QVQLVESGGGLVQAGGSLRLSCAASGFIFRQYAMGWYRQAPGKERELVAAISVGGGRTYYADSVKGRFTISRDNAKNTVYLQMNSLKPEVTAVYYCAASNWHSRGSGEYYWGQGTQVTVSS”: the “polyreactivity (PSR sort gate)” value is recorded as “high polyreactivity”.
Take “QVQLVESGGGLVQAGGSLRLSCAASGFIFRRNAMGWYRQAPGKERELVAAIRFRSGSTYYAHSVKGRFTISRDNAKNTVYLQKNSLKPEDTAVYYCAADNKRSWRYAYNYWGQRTQVTVSS”: the “polyreactivity (PSR sort gate)” value is “high polyreactivity”.
Next, “QVQLVESGGGLVQAGGSLRLSCAASGFIFRRNAMGWYRQAPGKERELVAAIRQRGDSTYYADSVKGRFTISRDNAKNTVYLQMNSLKPEDTAVYYCATDHAYFHPEYDYWGQGTQVTVSS”: “low polyreactivity”; “QVQLVESGGGLVQAGGSLRLSCAASGFIFRRNAMGWYRQAPGKERELVAAITGGGGSTYYADSVKGRFTISRDNAKNTVYLQMNSLKPEDTAVYYCAVDWSRFYNRGGDYWGQGTQVTVSS”: “high polyreactivity”; “QVQLVESGGGLVQAGGSLRLSCAASGFIFRRNAMGWYRQAPGKERELVAAITKSGGSTYYADSVKGRFTISRDNAKNTVYLQMNSLKPEDTAVYYCAASDASGGGYWGQGTQVTVSS”: “high polyreactivity”.
In the case of “QVQLVESGGGLVQAGGSLRLSCAASGFIFRRNAMGWYRQAPGKERELVAVISSRGGTYYADSVKGRFTISRDNAKNTVYLQMNSLKPEDTAVYYCAVDRGKYFPYRYDYWGQGTQVTVSS” it was “high polyreactivity”; in that of “QVQLVESGGGLVQAGGSLRLSCAASGFIFRRYAMGWYGQAPGKERELVAVIRSSGGSTYYADSVKGRFTISRDYAKNTVYLQMISLNPEDTAVYYCAAVSYSSYRYDYWGQGTQVTVSS”, “high polyreactivity”.
Regarding “QVQLVESGGGLVQAGGSLRLSCAASGFIFRRYAMGWYRPAPGKERELVAAITGGGGSTYYADSVKGRFTISRDNAKNTVYLQMNSLKPEDSAVYYCAASQARNYKIYDYWGQGTQVTVSS”, the “polyreactivity (PSR sort gate)” value is listed as “high polyreactivity”.
In the case of “QVQLVESGGGLVQAGGSLRLSCAASGFIFRRYAMGWYRQAPGKERELVAAINYSGGSTYYADSVKGRFTISRDNAKNTVSLQMNSLKPEDTSVYYCNAFGLRYYEYDYWGQGTQVTVSS” it was “low polyreactivity”; in that of “QVQLVESGGGLVQAGGSLRLSCAASGFIFRRYAMGWYRQAPGKERELVAAISRGGGSTYYADSVKGRFTISRDNAKNTVYFQMNSLKPEDTAVYYCAARFVPYDAPLNERDYWGQGTQVTVSS”, “high polyreactivity”.
Next, “QVQLVESGGGLVQAGGSLRLSCAASGFIFRRYAMGWYRQAPGKERELVAAISWSGGSTYYADSVKGRFTISRDNAKNTVYLQMNSLKPEDTAVYYCAKVPTSASPYDHWGQGTQVTVSS”: “high polyreactivity”; “QVQLVESGGGLVQAGGSLRLSCAASGFIFRRYTMGWSRQAHGKERELVAAITSSGGTNYADSVKGRFTISRDNAKNTVYLQMNSLKPEDTAVYFCAAESVSSVWYDYLGQGTQVTVSS”: “high polyreactivity”.
With “QVQLVESGGGLVQAGGSLRLSCAASGFIFRRYTMGWYRQAPGKERELVATITRSVNTDYADSVKGRFTFSRDNAKNTVYLQMNSLKPEDTAVYYCAARKYYYFPVAYDYWGQGTQVTVSS”, the “polyreactivity (PSR sort gate)” value is “high polyreactivity”.
“QVQLVESGGGLVQAGGSLRLSCAASGFIFRTYAMAWYRQAPGKERELVAAIRQSAGRTYYADSVKGRFTISRDNAKNTVYLQMISLKPEDTAVYYCAADRSPYRRQYDYWGQGTQVTVSS”: the “polyreactivity (PSR sort gate)” value was “high polyreactivity”.
Next, “QVQLVESGGGLVQAGGSLRLSCAASGFIFRTYAMGWYRQAPGKERELVAAISGTTGSTYYADSVKGRFTISRDNAKNTVYLQMNSLKPEDTAVYFCAADYYWYIRYEYWGQGSQVTVSS”: “low polyreactivity”; “QVQLVESGGGLVQAGGSLRLSCAASGFIFRVYGMGCYRQATAKERELVAAMTGGCGSTYYADSVKGRFTISRDNAKNTVYLQMNSLKPEDTAVYYCAAVRYSGVRYRYGIYSDTMDYWGQGTQVTVSS”: “high polyreactivity”; “QVQLVESGGGLVQAGGSLRLSCAASGFIFRWYAMGWSRQAPGKERELVAAISRSGDSTYYADSVKGRFTISRDNAKNTVYLQMNSLKPEDSAVYYCAADDRYYTYGYDYWGQGTQVTVSS”: “low polyreactivity”.
On to “QVQLVESGGGLVQAGGSLRLSCAASGFIFRYNAMGLYRQAPGKERELVARINSGVSTNYADSVKGRFTISRDNAKNTVYLQMNSLKPEDTAVYYCNARVRRGYSRFDYWGQGTQVTVSS”, for which the “polyreactivity (PSR sort gate)” value is on record as “high polyreactivity”.
Consider “QVQLVESGGGLVQAGGSLRLSCAASGFIFRYNAMGWYRQAPGKERELVARISSGGSTNYADSVKGRFTISRDNAKNTVYLQMNSLKPEDTAVYYCAVKQYWYIWSGYGYDYWGQGTQVTVSS”, for which the “polyreactivity (PSR sort gate)” value was “high polyreactivity”.
On to “QVQLVESGGGLVQAGGSLRLSCAASGFIFRYYAMAWYRQAPGKERELVASISRRGGSTYYADSVKGRFTISRDNSKNTFYLQMIRLIPEDTAVYYCAADVVNTVYYPGYDYLGQGTQVTVSS”, for which the “polyreactivity (PSR sort gate)” value is recorded as “high polyreactivity”.
“QVQLVESGGGLVQAGGSLRLSCAASGFIFRYYAMGSYRQAPGKERELVAAITSGGASTYYADSVKGRFTISRDNAMNTVYLQMNSLKPDDTAVYYCAADTSSYSEYEYWGQGTQVTVSS”: the “polyreactivity (PSR sort gate)” value is “low polyreactivity”.
In the case of “QVQLVESGGGLVQAGGSLRLSCAASGFIFRYYAMGWYRQAPGKERELVAAIDYSGGSTNYADSVKGRFTISRDYAKNTVYLQMNSQKPEDTAVYYCNAEYTWHRGYDYWGQGTQVTVSS” it was “low polyreactivity”; in that of “QVQLVESGGGLVQAGGSLRLSCAASGFIFRYYAMGWYRQAPGKERELVAAIRRGGSTSYADSVKGRFTISRDNAKNTVYLQMNSLKPEDTAVYYCNALGNFGMDYWGQGTQVTVSS”, “high polyreactivity”; in that of “QVQLVESGGGLVQAGGSLRLSCAASGFIFRYYAMGWYRQAPGKERELVAAISGNGGNTYYADSVKGRFTISRDNAKNTVYLQMNSLKPEDTAVYYCNRAPGYRGGRYDYWGQGTQVTVSS”, “high polyreactivity”.
With “QVQLVESGGGLVQAGGSLRLSCAASGFIFRYYAMGWYRQAPGKERELVAAISSRGGSTYYADSVKGRFTISRDNAKNTVYLQMNSLKPEDTAVYYCAKRGFYTDRDYWGQGTQVTVSS”, the “polyreactivity (PSR sort gate)” value is “high polyreactivity”.
In the case of “QVQLVESGGGLVQAGGSLRLSCAASGFIFRYYAMGWYRQAPGKERELVAAISWSGSRTYYADSVKGRFTISRDNAKNTVYVQMNSLKPEDTAVYYCAADGNVGVTKGRFDYWGQGTQVTVSS” it was “high polyreactivity”.
For the sequence “QVQLVESGGGLVQAGGSLRLSCAASGFIFRYYAMGWYRQAPGKERELVAAITRGGSTYYADSVKGRFTISRDNAKNTVYLQMNSLKPEDTAVYDCAARLYTQYYYWGQGTQVTVSS”, the “polyreactivity (PSR sort gate)” value is given as “high polyreactivity”.
Take “QVQLVESGGGLVQAGGSLRLSCAASGFIFRYYGMGWYRQAPGKERELVAAITDGGSTTYADSVKGRFTISRDNAKNTVYLQMNSLKPEDTAVYYCNAEAGGFDYYGKTYRYGDYWGQGTQVTVSS”: the “polyreactivity (PSR sort gate)” value is “low polyreactivity”.
In the case of “QVQLVESGGGLVQAGGSLRLSCAASGFIFRYYSMAWYRQAPGKERELVAAISGSGGGTYYADSVKGRFTISRDYAKNTVYLQMNSLKPEDTAVYYCNARKVYSRRYKYDYWGQGSQVTVSS” it was “high polyreactivity”; in that of “QVQLVESGGGLVQAGGSLRLSCAASGFIFRYYTMGWYRQAPGKERELVARISSGGSTTYADSVKGRFTISRDNAKNTVYLQMNSLKPEDTAVYYCHARVKRWYFGNANHSPEYDYWGKGTQVTVSS”, “low polyreactivity”.
